Patent EP1146896B1

What was measured:
[1] = target: B28-N^ε-myristoyl-Lys^B28Pro^B29 human insulin analog (human); test: sedimentation velocity analysed with DCDT Plus, self-association, pH 8.0
[2] = target: B28-N^ε-myristoyl-Lys^B28Pro^B29 human insulin analog (human); test: sedimentation velocity, self-association, 7 mM phosphate pH 7.95 (monomer 6,018 g/mole, theoretical hexamer 36,108 g/mole)
[3] = target: B28-N^ε-myristoyl-Lys^B28Pro^B29 human insulin analog (human); test: static light scattering, self-association, pH 7.8
[4] = target: B28-N^ε-myristoyl-Lys^B28Pro^B29 human insulin analog (human); test: sedimentation velocity, self-association, 10 mM Tris pH 7.96 (monomer 6,018 g/mole, theoretical hexamer 36,108 g/mole)
[5] = target: B28-N^ε-myristoyl-Lys^B28Pro^B29 human insulin analog (human); test: static light scattering, self-association, pH 7.5
[6] = target: B28-N^ε-myristoyl-Lys^B28Pro^B29 human insulin analog (human); test: static light scattering, self-association, pH 8.0
[7] = target: B28-N^ε-myristoyl-Lys^B28Pro^B29 human insulin analog (human); test: static light scattering, self-association, pH 8.3
[8] = target: B28-N^ε-myristoyl-Lys^B28Pro^B29 human insulin analog (human); test: static light scattering, self-association, pH 8.5
[9] = target: B28-N^ε-octanoyl-Lys^B28Pro^B29 human insulin analog (human); test: sedimentation velocity (DCDT Plus), self-association, pH 8.0, refined fit
[10] = target: B28-N^ε-octanoyl-Lys^B28Pro^B29 human insulin analog (human); test: sedimentation velocity (DCDT Plus), self-association, pH 8.0, first fit
[11] = target: B29-N^ε-myristoyl-des(B30) human insulin (human) (UniProt P01308); test: sedimentation velocity (DCDT Plus, single Gaussian fit), self-association, pH 8.4
[12] = target: B29-N^ε-myristoyl-des(B30) human insulin (human) (UniProt P01308); test: sedimentation velocity (DCDT Plus, single Gaussian fit), self-association, pH 7.5; heterogeneous
[13] = target: B29-N^ε-myristoyl-des(B30) human insulin (human) (UniProt P01308); test: sedimentation velocity, area of the profile compared with an ideal hypothetical hexamer curve, self-association, pH 8.0 (7.97)
[14] = target: B29-N^ε-myristoyl-des(B30) human insulin (human) (UniProt P01308); test: sedimentation velocity (DCDT Plus, single Gaussian fit), self-association, pH 7.97
[15] = target: B29-N^ε-octanoyl-Asp^B28 human insulin analog (human); test: sedimentation velocity (DCDT Plus, two Gaussian fit), self-association, pH 8.0
[16] = target: B29-N^ε-octanoyl-Asp^B28 human insulin analog (human); test: sedimentation velocity (DCDT Plus, two Gaussian fit), self-association, pH 7.5; the model is the 27,700 g/mole species, not hexamer
[17] = target: B29-N^ε-octanoyl-Asp^B28 human insulin analog (human); test: sedimentation velocity (DCDT Plus, two Gaussian fit), self-association, pH 7.5; hexamer said not to be dominant

B28-N^ε-myristoyl-Lys^B28Pro^B29 human insulin analog (ligand)
molecular weight of association [1]: 34400 grams/mole
percent of data described by the hexamer model [1]: > 96%
Calculated MW of association [2]: 34300 g/mol
Mw (weight-average molecular weight of association) [3]: 60700 g/mol
Calculated MW of association [4]: 35000 g/mol
Mw (weight-average molecular weight of association) [5]: 127000 g/mol
Mw (weight-average molecular weight of association) [6]: 40400 g/mol
Mw (weight-average molecular weight of association) [7]: 40400 g/mol
Mw (weight-average molecular weight of association) [8]: 49100 g/mol

B28-N^ε-octanoyl-Lys^B28Pro^B29 human insulin analog (ligand)
molecular weight of association [9]: 40800 g/mol
percent of data described by the hexamer model [9]: > 94%
molecular weight of association [10]: 35300 g/mol

B29-N^ε-myristoyl-des(B30) human insulin (from UniProt P01308 25-110; P01308 25-110) (ligand)
MW (g/mole) of association [11]: 39000 g/mol
MW (g/mole) of association [12]: 23000 g/mol
percent in the hexamer association state [13]: > 92 percent
MW (g/mole) of association [14]: 30700 g/mol

B29-N^ε-octanoyl-Asp^B28 human insulin analog (ligand)
molecular weight of association [15]: 33200 g/mol
percent of data described by the hexamer model [15]: 85%
percent of data described by the model [16]: > 92%
molecular weight of association [17]: 27700 g/mol
